For test [1], the target named is T1, recombinant human CD25 extracellular protein sequence (rhCD25) (human, UniProt P01589 22-240).
T1 construct: also called human CD25 antigen; target antigen
T1 sequence: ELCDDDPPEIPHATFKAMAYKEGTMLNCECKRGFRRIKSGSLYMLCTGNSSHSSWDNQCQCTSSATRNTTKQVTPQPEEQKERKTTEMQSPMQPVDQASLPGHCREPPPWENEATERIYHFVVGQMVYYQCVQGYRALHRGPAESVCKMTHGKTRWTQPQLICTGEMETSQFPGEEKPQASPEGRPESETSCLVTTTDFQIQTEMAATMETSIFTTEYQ
Description: ForteBio BLI; format not given; lower end of the stated Kd range. A general note: Biolayer interferometry detects binding as a change in optical thickness at a sensor tip.

Test [2] deals with T1, recombinant human CD25 extracellular …. Description: ForteBio BLI; format not given; upper end of the stated Kd range.
In test [3] the target is T2, recombinant human CD25 his tagged (human, UniProt P01589 22-240, limits assumed).
T2 construct: Loaded on Ni-NTA sensors at 20.83 nM; also called rhCD25-his; not shown: His tag
T2 sequence: T1 sequence
Description: ForteBio BLI, avidity format: rhCD25-His on Ni-NTA sensor, IgG in solution, 1:1 fit.

Test [4] has as its target T3, human CD25 expressed on cells (human, UniProt P01589 22-272).
T3 sequence: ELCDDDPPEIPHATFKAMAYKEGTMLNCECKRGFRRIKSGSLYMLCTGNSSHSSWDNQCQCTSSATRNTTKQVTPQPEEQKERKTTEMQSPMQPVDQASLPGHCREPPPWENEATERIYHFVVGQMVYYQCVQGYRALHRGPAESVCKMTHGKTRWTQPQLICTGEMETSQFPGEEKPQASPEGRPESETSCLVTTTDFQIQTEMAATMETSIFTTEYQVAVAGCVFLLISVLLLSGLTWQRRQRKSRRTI
The experiment in a line: flow cytometry on CD3/CD28 bead activated human Pan T cells, gated on CD4+ T cells.
Description: (§1) Binding to CD25 expressing activated human and Cynomolgus monkey PMBC was examined by staining test articles (anti-CD25 primary antibodies) with 20 μg/ml antibodies followed by semi-log dilution series (7-point) for 30 minutes on ice. This was followed by staining with a secondary antibody (rabbit anti-human Fcg F(ab′)2- (Jackson ImmunoResearch)) concentration of 5 μg/ml for 30 minutes on ice. All samples were stained in triplicates. To minimize cross-linking induced cell death mediated by binding of the secondary antibody, cell lines were examined in staining cohorts of 4 test articles at a time. Live lymphocytes were gated using FSC vs SSC parameters by flow cytometry during sample acquisition. Mean fluorescence intensity (MFI) of gated CD4⁺ and CD8⁺ T cell subsets were plotted on an XY chart, graphing MFI against the log of the concentration, and the data fit to a non-linear regression curve from which the EC50 was calculated.

In test [5] the target is T3, human CD25 expressed on cells. The experiment in a line: flow cytometry on CD3/CD28 bead activated human Pan T cells, gated on CD8+ T cells. Background: A flow cytometer gives signals particle by particle.
Description: as §1
For test [6] the target is unchanged. The experiment in a line: flow cytometry on human in vitro differentiated Treg cells, Alexa Fluor 647 anti-human IgG secondary.
Description: Binding to CD25 expressing in vitro differentiated Tregs was examined by staining test articles (anti-CD25 primary antibodies) with 30 μg/ml antibodies followed by semi-log dilution series (7-point) for 30 minutes on ice. […] All samples were stained in duplicates. Live cells were gated using FSC vs SSC parameters by flow cytometry during sample acquisition. Mean fluorescence intensity (MFI) of stained cells were plotted on an XY chart, graphing MFI against the log of the concentration, and the data fit to a non-linear regression curve from which the EC50 is calculated.
For test [7], the target named is T4, human CD25 antigen, R&D Systems cat no. 223-2A/CF (human, UniProt P01589 22-213, limits assumed).
T4 construct: Bought protein; also called R&D Systems (~10% dimer)
T4 sequence: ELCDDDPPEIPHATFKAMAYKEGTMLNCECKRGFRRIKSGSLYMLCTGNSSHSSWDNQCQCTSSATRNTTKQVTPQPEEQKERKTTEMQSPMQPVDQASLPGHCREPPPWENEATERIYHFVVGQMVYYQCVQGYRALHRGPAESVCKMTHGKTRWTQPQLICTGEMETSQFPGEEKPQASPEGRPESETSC
Description: SPR Biacore T200, antibody captured by anti-human Fab, CD25 in solution, Two State Reaction fit; column head 'Binding strength'. A general note: SPR reads the build-up and loss of mass on a sensor chip optically.
Description: (§2) Binding of CD25 antibodies to human CD25 antigen was investigated by surface plasmon resonance using a BIACORE T200 instrument (GE Healthcare).
(§3) The flow cell was set to 25° C. and the sample compartment to 12° C. The CD25 antibody was captured by injecting a 3 μg/ml solution for 60 sec at a flow rate of 10 μl/min. Association of CD25 antigen was measured by injection of human CD25 solutions for 180 sec at a flow rate of 30 μl/min starting with a concentration of 1000 nM down to 1 nM in 1:10 dilution steps. The dissociation phase was triggered by switching from sample solution injection to running buffer and monitored for up to 600 seconds. The surface was regenerated by washing with two consecutive 1-minute injections of 10mM glycine pH 2.1 (provided by the kit) at a flow rate of 10 μl/min. Bulk refractive index differences were corrected by subtracting the response obtained from an anti-human Fab reference surface; blank injections are also subtracted (=double referencing).
(§4) For calculation of KD and kinetic parameters Biacore provided fitting models were used to obtain optimal curve fitting results. The 1:1 Langmuir fit was used for P1AA5872 and the Two State Kinetic fitting for CD25 from Sino Biologicals and R&D Systems.

Test [8] has as its target T5, inhouse produced monomeric CD25 antigen (P1AA5872) (human, UniProt P01589 22-240, limits assumed).
T5 construct: also called Inhouse (0% dimer)
T5 sequence: T1 sequence
Description: SPR Biacore T200, antibody captured by anti-human Fab, monomeric CD25 in solution, 1:1 Langmuir fit; column head 'Binding strength'.
Description: as §2, §3, §4

The target of test [9] is T6, human CD25 antigen, Sino Biologicals cat no. 10165-H08H (human, UniProt P01589 22-213).
T6 construct: Bought protein; also called Sino biological (~20% dimer)
T6 sequence: T4 sequence
The experiment in a line: SPR Biacore T200, antibody captured by anti-human Fab, CD25 in solution, Two State Reaction fit; column head 'Binding strength'; Sino Biologicals CD25, ~20% dimer; Two State Reaction fit.
Description: as §2, §3, §4

A word on the EC50 (read off the curve): it is the concentration needed to bring the measured effect to its halfway point. High values mean a need for much substance, low ones an effect from little substance.

B1: aCD25-a-674 (antibody, V domains shown)
VH: QVQLVQSGAEVKKPGASVKVSCKASGYTFTSYYMHWVRQAPGQGLEWMGIINPSGGSTSYAQKFQGRVTMTRDTSTSTVYMELSSLRSEDTAVYYCARGGAEYIPAEYFQHWGQGTLVTVSS
VL: EIVMTQSPATLSLSPGERATLSCRASQSVSSYLAWYQQKPGQAPRLLIYDASNRATGIPARFSGSGSGTDFTLTISSLEPEDFAVYYCQQRPFLPTFGGGTKVEIK
notes: not shown: human IgG1 heavy chain constant region, P01857; human kappa light chain constant region, P01834
In the case of B1, the Kd in [1] is not below 0.1 nM; in test [2], not above 10 nM; in [3] it was 2.12 nM; in test [7], 48 nM; in [8], 517 nM; in test [9], 40 nM. The concentration giving a half-maximal response (EC50 (read off the curve)) in [4] is approximately 0.9 µg/mL; in test [5], approximately 1 µg/mL; in test [6], approximately 2 µg/mL.
